Patent US20150191515A1 (SYNTHETIC GENOMICS, published 2015)
Each block holds one binder with its values, some of them ahead of it.

Assays:
[1] = biological target: T1, Hap-1742 (HapY), non-LEC1-type HAP3-like / NF-YB subunit of a CCAAT-box binding factor from Nannochloropsis … (Nannochloropsis gaditana); experiment: yeast two hybrid, NF-YA-1257 prey strain mated with Hap-1742 bait strain
T1 construct: also called Nannochloropsis NF-YB polypeptide
T1 chain: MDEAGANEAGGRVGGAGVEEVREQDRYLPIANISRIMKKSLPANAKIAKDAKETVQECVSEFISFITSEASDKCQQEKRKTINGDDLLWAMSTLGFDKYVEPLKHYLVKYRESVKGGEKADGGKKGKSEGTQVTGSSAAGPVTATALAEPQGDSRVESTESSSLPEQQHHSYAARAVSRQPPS

[2] = biological target: T1, Hap-1742 (HapY), non-LEC1-type …; experiment: yeast two hybrid screen, Hap-1742 bait against Nannochloropsis cDNA prey library
Procedure: Based on these numbers, it is estimated that more than 10 million interactions were tested.

binding result [1]: binds
B1: NF-YA-1257 (EUKT1257), Nannochloropsis NF-Y subunit A (other)
chain: MDGAETGSGGDSDSGGGRKKIVRPCSSAETSLSMDVTATSYQGTNFNHMLSHGAPASAMVETHDGEGSLCPFPFQPPPHQQHNLQYQQPQEHQMQQTYYGQMNDDGNNFYDHSPHMEGFEPLGAPQEAAGSDLGPQPIFVNPKQYERIMKRREARARLENHRKIAAERKPFLHKSRHLHAVKRPRGPGGRFLTKEERIAWDEEQAQLEGTSTMGAVHVSNEVAAKTLYSSAQASIAAGPPLASQQGSRHASPPFSSPLSSSSCLPPSASTPVAPSGPSSYCSSSPII
notes: The open reading frame was cloned into prey vector pGADT7 (Clontech) and expressed in yeast strain Y2HGold; also called CBF-B/NF-YA

binding result [2]: binds
B2: EUKT1490, Nannochloropsis NF-YC polypeptide (other)
chain: MRLYRQIKKASMSRSPEVLQTSNSALSYASPSQAPSGAAIMMPTAPALPGRSTNTPNTQTGTEERKRDTPEGPKPSPLAGTPASMKAEEAPVSSKKARNAPIPPLSTSNAYVTEDTTLAIPRASIKRIMKLDPDTKQLSQDAIMVMAKATELFIDKLAKASHSMAVTNKRKTIKYEDIADARFSQKNMEFLDGVVPQIP
notes: Yeast two hybrid prey clone from a cDNA library in pGADT7-rec (Clontech), in yeast strain Y2HGold; also called NF-Y C subunit; HAP5 polypeptide

binding result [2]: binds
B3: EUKT6092, Nannochloropsis NF-YC polypeptide (other)
chain: MSGASGNGANPAVQQPYIPTDAEQAEHLQNLIRKLKDFWVEQLAEMETLSLASEQDFKNYIDLPLARIKRIMKSDEDVHMISAEVLVLFAKACEMFILELTIRSWCYSERSKRRTLQREDIQAAIANADILDFLVNIV
notes: as for B2
